Results: paper PMC314469, “Protein Interaction Networks by Proteome Peptide Scanning” (PLoS Biology, 2004)

T1: Yhr016c SH3 (YSC84_YEAST), P32793
T1 chain: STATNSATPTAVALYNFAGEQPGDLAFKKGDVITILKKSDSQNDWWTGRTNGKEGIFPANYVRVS

T2: Myo5 SH3 (MYO5_YEAST), Q04439
T2 chain: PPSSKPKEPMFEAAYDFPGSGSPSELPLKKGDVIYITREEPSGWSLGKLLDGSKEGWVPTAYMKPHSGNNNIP

T3: Boi1 SH3 (BOI1_YEAST), P38041
T3 chain: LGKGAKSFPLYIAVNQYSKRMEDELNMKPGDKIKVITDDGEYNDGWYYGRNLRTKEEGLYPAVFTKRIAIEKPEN

T4: Boi2 SH3 (BOI2_YEAST), P39969
T4 chain: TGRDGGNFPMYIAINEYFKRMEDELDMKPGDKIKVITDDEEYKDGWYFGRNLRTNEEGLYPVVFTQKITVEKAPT

T5: Rvs167 SH3 (RV167_YEAST), P39743
T5 chain: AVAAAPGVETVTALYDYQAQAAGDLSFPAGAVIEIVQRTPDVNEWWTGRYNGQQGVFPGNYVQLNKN

T6: Yfr024 SH3 (LSB3_YEAST), P43603
T6 chain: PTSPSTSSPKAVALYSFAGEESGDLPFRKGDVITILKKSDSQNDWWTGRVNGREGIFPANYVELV


What was measured:
Experiment in all cases: SPOT array
[1] = molecular target: T1, Yhr016c SH3 (YSC84_YEAST), P32793
[2] = molecular target: T2, Myo5 SH3 (MYO5_YEAST), Q04439
[3] = molecular target: T3, Boi1 SH3 (BOI1_YEAST), P38041
[4] = molecular target: Sho1 SH3 (SHO1_YEAST), P40073
Sequence of Sho1 SH3 (SHO1_YEAST), P40073 (P40073 295-366): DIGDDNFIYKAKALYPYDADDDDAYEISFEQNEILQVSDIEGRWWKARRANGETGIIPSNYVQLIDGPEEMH

[5] = molecular target: T4, Boi2 SH3 (BOI2_YEAST), P39969
[6] = molecular target: T5, Rvs167 SH3 (RV167_YEAST), P39743
[7] = molecular target: T6, Yfr024 SH3 (LSB3_YEAST), P43603

| normalised SPOT signal, Boehringer light units (BLU); mean over the file's lines of this peptide [1] | normalised SPOT signal, Boehringer light units (BLU); mean over the file's lines of this peptide [2] | normalised SPOT signal, Boehringer light units (BLU); mean over the file's lines of this peptide [3] | normalised SPOT signal, Boehringer light units (BLU); mean over the file's lines of this peptide [4] | normalised SPOT signal, Boehringer light units (BLU); mean over the file's lines of this peptide [5] | normalised SPOT signal, Boehringer light units (BLU); mean over the file's lines of this peptide [6] | normalised SPOT signal, Boehringer light units (BLU); mean over the file's lines of this peptide [7] | Binder |
| --- | --- | --- | --- | --- | --- | --- | --- |
| 16.4 | 137 | 73.1 | 20.3 | 0 | 28.8 | 15.3 | PNPLKKAPIPPLAY [YPR059C 36-49] |
| 29.6 | 150 | 220 | 25.8 | 13.5 | 49.5 | 450 | PPSIRKQPIAPDVL [YJR092W 754-767] |
| 456 | 268 | 92.2 | 56.5 | 194 | 306 | 3150 | PPQMRSNPQQPPQD [YPL204W 472-485] |
| 84.4 | 175 | 340 | 950 | 16 | 261 | 949 | PLRERIIPILPANS [YMR164C 159-172] |
| 87.6 | 634 | 572 | 3830 | 60.1 | 210 | 2550 | PPRFKNFPTLPSKI [YLL015W 59-72] |
| 24.1 | 193 | 609 | 22000 | 9.7 | 64.7 | 89.9 | PKTGKPLPTQPSSS [YKR001C 557-570] |
| 30.5 | 148 | 61 | 27.6 | 17.5 | 1 | 184 | PPNYKQQPNSPSSN [YLR183C 18-31] |
| 87.4 | 187 | 132 | 36.1 | 148 | 95.7 | 197 | PIGSRYNPNLPVTE [YPR019W 677-690] |
| 39.4 | 15000 | 4340 | 8.1 | 19.8 | 57 | 212 | PPPPRRGPAPPPPP [YOR181W 345-358] |

Further lines, the binder ahead of its results:

| Binder | normalised SPOT signal, Boehringer light units (BLU); mean over the file's lines of this peptide [1] | normalised SPOT signal, Boehringer light units (BLU); mean over the file's lines of this peptide [2] | normalised SPOT signal, Boehringer light units (BLU); mean over the file's lines of this peptide [3] | normalised SPOT signal, Boehringer light units (BLU); mean over the file's lines of this peptide [4] | normalised SPOT signal, Boehringer light units (BLU); mean over the file's lines of this peptide [5] | normalised SPOT signal, Boehringer light units (BLU); mean over the file's lines of this peptide [6] | normalised SPOT signal, Boehringer light units (BLU); mean over the file's lines of this peptide [7] |
| --- | --- | --- | --- | --- | --- | --- | --- |
| PKHIRNEPVKPFRN [YHR037W 25-38] | 59.8 | 361 | 1660 | 46.8 | 0 | 49.7 | 928 |
| PKSEKIEPLSPSFK [YJL172W 61-74] | 0.1 | 116 | 536 | 84.8 | 7.7 | 44.3 | 0 |
| PIVKKNVPKPPPLV [YBR123C 400-413] | 27.1 | 154 | 262 | 50.2 | 167 | 33 | 64.6 |
| PIRLRKRPPPPPPV [YIL156W 508-521] | 25.6 | 60300 | 6390 | 98.1 | 39.2 | 289 | 292 |
| PKSPKAYPKLPDIQ [YDL117W 352-365] | 24.1 | 357 | 409 | 143 | 23.5 | 0 | 83.8 |
| PPLPRAPPVPPATF [YJL021C 6-19] | 10.8 | 35900 | 152 | 29.4 | 13.2 | 17.7 | 135 |
| PKKSRVLPPLPFPL [YER032W 884-897] | 3660 | 3590 | 940 | 25000 | 16.2 | 18900 | 12800 |
